Reference: paper PMC8307404, “Crystal Structure-Guided Design of Bisubstrate Inhibitors and Photoluminescent Probes for Protein Kinases of the PIM Family” (Molecules, 2021)
Square brackets hold non-standard residues; d marks the D form. Peptide text beside a SMILES is read from it. * marks the point of attachment. X3 = O=C(CCCCCNCc1nc2c(sc3cc(Br)cnc32)c(=O)[nH]1)*

What was measured:
Test in all cases: Kinase profiling (radiometric filter-binding)
Assay type in all cases: biochemical
PIM3 = PIM3 (Homo sapiens, UniProt Q86V86); settings: PIM3, 1 µM inhibitor; read-out: Residual activity, %
Procedure: (§1) Kinase selectivity profiling was performed using the commercial service provided by the MRC PPU International Centre for Kinase Profiling (Dundee, UK) using a radiometric filter-binding assay. Kinases used for analysis were of human origin. The ATP concentration applied for inhibition measurements was at or below the ATP KM value of the particular PK. ARC-3125 and ARC-3126 were screened against 139 PKs, whereas compounds 1, 2, and 8 were screened against 140 PKs. The final total concentration of inhibitors in the selectivity panel was 1 µM. Residual activities were expressed as the percentage of retained activity compared to the control without inhibitor.

MST4 = MST4 (Homo sapiens, UniProt Q9P289); settings: MST4, 1 µM inhibitor; read-out: Residual activity, %
Sequence of MST4 (Q9P289 whole entry): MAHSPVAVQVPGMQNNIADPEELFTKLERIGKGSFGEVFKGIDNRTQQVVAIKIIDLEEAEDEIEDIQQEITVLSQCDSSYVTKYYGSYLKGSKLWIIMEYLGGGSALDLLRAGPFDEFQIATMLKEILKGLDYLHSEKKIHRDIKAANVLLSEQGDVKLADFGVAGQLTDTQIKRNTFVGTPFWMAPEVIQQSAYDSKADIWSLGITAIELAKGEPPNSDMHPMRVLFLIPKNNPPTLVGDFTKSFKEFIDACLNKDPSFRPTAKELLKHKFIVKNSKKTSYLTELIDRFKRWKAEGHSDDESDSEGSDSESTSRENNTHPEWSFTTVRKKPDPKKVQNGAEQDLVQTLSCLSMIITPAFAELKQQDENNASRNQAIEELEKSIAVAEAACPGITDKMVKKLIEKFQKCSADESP
Procedure: as §1

WNK1 = WNK1 (Homo sapiens, UniProt Q9H4A3); settings: WNK1, 1 µM inhibitor; read-out: Residual activity, %
Sequence of WNK1 (Q9H4A3 whole entry): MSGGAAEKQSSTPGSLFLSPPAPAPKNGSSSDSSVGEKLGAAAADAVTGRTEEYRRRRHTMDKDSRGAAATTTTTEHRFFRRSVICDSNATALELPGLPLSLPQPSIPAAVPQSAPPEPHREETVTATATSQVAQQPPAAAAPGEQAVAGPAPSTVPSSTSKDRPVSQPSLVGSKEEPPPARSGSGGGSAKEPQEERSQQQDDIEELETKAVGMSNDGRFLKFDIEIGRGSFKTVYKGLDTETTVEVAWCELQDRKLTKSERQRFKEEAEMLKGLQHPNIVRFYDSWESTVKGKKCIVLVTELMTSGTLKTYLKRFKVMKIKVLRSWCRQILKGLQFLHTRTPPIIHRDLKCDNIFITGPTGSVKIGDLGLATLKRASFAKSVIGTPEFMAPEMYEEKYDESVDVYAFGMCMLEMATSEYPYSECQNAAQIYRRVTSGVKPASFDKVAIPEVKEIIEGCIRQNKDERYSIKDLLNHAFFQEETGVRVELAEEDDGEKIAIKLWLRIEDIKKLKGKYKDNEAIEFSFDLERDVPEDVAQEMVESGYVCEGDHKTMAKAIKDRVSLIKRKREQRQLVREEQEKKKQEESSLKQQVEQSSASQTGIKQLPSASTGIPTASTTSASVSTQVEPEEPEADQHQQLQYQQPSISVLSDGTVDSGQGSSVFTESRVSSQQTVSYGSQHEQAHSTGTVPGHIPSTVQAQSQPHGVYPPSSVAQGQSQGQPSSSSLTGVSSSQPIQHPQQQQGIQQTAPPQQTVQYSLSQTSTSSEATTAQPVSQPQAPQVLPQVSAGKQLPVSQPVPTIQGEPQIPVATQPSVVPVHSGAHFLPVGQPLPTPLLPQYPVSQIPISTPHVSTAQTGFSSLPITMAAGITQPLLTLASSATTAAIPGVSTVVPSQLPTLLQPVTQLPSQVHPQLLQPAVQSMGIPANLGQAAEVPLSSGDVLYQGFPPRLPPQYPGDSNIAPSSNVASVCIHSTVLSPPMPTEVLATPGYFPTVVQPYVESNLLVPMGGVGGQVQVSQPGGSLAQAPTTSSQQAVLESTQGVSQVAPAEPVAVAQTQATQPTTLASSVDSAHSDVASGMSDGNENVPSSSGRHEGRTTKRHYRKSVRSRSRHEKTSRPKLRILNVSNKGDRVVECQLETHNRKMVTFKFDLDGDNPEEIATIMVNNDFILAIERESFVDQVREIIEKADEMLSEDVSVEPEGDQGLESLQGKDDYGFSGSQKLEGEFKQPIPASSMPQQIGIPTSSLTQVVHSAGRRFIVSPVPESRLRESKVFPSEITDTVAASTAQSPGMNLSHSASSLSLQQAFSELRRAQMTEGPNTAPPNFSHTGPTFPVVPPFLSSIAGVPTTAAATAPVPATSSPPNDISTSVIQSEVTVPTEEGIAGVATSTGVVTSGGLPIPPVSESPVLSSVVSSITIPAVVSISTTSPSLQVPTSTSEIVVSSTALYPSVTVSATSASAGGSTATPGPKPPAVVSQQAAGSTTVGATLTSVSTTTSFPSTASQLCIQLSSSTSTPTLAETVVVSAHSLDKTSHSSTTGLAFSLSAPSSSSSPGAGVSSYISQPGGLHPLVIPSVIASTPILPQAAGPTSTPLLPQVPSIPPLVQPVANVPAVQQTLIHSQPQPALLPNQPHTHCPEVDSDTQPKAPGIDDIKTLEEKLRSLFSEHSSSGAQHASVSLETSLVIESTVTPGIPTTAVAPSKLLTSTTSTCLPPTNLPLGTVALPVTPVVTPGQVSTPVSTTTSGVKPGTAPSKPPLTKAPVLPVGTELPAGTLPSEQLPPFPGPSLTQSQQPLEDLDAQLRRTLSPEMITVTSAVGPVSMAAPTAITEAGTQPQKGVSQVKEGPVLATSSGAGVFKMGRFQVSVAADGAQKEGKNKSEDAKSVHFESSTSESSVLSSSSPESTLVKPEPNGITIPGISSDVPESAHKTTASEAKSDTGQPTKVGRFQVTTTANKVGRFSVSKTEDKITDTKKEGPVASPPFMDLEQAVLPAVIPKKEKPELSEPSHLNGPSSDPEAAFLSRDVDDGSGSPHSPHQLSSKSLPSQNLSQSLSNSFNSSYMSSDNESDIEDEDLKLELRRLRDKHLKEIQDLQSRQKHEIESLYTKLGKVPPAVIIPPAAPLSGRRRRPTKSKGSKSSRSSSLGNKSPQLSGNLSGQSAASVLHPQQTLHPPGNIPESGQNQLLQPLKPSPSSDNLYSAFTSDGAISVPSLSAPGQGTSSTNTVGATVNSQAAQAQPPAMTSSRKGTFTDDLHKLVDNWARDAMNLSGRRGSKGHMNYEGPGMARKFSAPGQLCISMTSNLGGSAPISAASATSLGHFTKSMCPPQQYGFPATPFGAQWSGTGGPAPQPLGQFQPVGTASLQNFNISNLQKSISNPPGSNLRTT
Procedure: as §1

HIPK1 = HIPK1 (Homo sapiens, UniProt Q86Z02); settings: HIPK1, 1 µM inhibitor; read-out: Residual activity, %
Sequence of HIPK1 (Q86Z02 whole entry): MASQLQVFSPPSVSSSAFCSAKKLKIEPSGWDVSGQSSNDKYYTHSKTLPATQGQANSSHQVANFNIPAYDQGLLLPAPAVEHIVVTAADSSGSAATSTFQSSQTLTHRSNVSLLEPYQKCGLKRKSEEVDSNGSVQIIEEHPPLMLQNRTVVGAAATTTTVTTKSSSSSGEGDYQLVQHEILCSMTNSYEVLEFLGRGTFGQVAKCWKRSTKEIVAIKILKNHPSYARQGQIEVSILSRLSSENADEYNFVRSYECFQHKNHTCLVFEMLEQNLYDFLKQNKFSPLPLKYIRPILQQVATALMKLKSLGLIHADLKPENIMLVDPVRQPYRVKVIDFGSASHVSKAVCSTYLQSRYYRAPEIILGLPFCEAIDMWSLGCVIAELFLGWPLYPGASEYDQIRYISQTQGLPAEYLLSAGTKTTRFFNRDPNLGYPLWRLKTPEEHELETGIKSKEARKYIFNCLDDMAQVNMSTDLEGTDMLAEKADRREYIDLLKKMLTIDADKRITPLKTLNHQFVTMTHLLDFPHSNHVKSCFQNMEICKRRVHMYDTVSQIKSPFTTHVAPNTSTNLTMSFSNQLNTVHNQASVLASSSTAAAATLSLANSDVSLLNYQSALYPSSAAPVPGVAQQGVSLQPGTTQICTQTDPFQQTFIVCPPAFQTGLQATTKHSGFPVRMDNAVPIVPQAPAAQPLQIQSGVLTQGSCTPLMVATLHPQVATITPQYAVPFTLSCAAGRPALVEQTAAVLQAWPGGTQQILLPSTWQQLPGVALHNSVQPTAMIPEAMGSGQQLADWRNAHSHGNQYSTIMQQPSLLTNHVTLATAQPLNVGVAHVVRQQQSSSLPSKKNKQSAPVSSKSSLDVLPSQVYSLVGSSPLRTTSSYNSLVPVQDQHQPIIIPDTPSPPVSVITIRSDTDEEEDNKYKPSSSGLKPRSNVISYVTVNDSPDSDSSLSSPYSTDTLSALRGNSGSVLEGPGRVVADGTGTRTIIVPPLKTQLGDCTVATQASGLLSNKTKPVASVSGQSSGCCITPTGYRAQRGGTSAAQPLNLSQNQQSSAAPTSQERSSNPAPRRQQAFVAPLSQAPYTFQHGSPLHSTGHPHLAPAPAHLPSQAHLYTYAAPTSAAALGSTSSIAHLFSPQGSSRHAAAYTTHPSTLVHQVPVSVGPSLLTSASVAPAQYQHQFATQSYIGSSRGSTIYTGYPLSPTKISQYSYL
Procedure: as §1

IKK = molecular target: T1, IKK (Homo sapiens, UniProt Q14164); settings: second of two IKK lines (Greek letter lost), 1 µM inhibitor, read-out: Residual activity, %
T1 sequence (Q14164 1-716): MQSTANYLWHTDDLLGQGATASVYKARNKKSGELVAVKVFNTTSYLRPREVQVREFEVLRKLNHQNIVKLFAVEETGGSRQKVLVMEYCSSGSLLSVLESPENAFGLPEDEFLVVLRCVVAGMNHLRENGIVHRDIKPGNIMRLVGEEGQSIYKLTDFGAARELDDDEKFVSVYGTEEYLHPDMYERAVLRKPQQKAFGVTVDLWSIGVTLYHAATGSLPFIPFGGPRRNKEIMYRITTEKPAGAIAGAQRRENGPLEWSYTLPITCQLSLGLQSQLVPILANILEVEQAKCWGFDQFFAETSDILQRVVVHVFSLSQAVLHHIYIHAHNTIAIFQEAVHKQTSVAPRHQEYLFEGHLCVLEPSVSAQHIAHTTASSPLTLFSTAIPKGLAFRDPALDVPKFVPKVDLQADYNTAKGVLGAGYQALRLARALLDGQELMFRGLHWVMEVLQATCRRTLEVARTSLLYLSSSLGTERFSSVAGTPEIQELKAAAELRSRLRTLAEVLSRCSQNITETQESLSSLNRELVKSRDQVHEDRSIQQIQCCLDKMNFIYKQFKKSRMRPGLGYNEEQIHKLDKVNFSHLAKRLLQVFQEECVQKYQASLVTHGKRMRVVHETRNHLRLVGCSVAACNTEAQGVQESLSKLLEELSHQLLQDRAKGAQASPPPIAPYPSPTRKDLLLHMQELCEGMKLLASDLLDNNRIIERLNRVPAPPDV
Procedure: as §1

JNK2 = JNK2 (Homo sapiens, UniProt P45984); settings: JNK2, 1 µM inhibitor; read-out: Residual activity, %
Sequence of JNK2 (P45984 whole entry): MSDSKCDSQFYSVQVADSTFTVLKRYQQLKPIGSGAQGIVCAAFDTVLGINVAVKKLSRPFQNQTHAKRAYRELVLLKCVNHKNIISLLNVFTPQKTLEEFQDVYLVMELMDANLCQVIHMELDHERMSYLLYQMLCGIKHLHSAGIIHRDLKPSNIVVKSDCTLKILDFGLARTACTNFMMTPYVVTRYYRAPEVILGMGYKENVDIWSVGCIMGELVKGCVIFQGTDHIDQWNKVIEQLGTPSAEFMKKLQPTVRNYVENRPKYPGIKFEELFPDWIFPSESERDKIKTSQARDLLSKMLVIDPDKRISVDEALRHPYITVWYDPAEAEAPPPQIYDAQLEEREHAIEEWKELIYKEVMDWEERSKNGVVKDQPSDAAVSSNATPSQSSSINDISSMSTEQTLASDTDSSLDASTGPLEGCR
Procedure: as §1

TESK1 = TESK1 (Homo sapiens, UniProt Q15569); settings: TESK1, 1 µM inhibitor; read-out: Residual activity, %
Procedure: as §1

ROCK 2 = ROCK 2 (Homo sapiens, UniProt O75116); settings: ROCK 2, 1 µM inhibitor; read-out: Residual activity, %
Procedure: as §1

CK1γ2 = CK1γ2 (Homo sapiens, UniProt P78368); settings: CK1γ2, 1 µM inhibitor; read-out: Residual activity, %
Sequence of CK1γ2 (P78368 whole entry): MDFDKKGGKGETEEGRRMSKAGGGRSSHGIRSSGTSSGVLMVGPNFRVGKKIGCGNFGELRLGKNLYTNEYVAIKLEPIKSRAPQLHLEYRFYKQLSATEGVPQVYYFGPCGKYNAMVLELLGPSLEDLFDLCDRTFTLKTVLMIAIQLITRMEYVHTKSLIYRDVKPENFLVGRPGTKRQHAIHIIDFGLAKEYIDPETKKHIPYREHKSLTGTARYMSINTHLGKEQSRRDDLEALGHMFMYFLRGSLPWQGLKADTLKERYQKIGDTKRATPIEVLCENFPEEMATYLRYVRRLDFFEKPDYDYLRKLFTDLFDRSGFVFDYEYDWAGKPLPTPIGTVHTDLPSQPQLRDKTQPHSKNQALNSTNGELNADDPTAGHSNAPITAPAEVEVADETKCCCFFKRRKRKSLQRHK
Procedure: as §1

MELK = MELK (Homo sapiens, UniProt Q14680); settings: 1 µM inhibitor, read-out: Residual activity, %
Procedure: as §1

LKB1 = molecular target: T2, LKB1 (Homo sapiens, UniProt Q15831); settings: LKB1, 1 µM inhibitor; read-out: Residual activity, %
T2 sequence (Q15831 1-433): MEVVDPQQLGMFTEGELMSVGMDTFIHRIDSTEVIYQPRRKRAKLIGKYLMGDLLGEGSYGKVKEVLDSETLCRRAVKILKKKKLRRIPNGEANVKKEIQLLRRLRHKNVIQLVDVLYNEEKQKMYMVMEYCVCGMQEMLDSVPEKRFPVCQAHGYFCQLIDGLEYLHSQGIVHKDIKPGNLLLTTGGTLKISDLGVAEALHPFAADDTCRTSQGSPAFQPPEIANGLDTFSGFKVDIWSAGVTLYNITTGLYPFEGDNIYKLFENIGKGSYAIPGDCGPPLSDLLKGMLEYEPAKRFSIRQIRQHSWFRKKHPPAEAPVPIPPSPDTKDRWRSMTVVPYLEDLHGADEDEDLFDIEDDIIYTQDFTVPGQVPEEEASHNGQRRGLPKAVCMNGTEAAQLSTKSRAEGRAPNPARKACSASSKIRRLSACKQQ
T2 sequence (Q7RTN6 1-431 partner): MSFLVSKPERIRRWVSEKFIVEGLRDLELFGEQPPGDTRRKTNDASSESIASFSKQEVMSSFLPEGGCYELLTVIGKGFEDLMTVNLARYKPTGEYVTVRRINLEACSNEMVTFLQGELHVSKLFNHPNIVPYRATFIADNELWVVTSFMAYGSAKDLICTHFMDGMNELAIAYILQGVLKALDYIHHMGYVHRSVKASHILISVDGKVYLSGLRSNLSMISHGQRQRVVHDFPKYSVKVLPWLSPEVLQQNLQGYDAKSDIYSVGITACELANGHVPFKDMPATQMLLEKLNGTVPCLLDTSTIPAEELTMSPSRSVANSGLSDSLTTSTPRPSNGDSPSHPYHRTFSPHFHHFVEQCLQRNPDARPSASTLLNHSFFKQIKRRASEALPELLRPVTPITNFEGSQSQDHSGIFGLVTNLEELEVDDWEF
T2 sequence (Q9Y376 1-341 partner): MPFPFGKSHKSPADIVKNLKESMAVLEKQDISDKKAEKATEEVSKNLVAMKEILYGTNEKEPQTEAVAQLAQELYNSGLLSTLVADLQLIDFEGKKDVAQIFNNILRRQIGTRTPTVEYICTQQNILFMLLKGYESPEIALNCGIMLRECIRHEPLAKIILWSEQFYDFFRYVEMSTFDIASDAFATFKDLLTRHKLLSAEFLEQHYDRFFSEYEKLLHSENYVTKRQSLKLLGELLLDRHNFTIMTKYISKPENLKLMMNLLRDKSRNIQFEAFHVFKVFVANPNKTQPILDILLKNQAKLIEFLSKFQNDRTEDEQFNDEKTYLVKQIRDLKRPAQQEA
Procedure: as §1

Row | Structure (SMILES) | remaining activity at 1 µM (PIM3) | remaining activity at 1 µM (MST4) | remaining activity at 1 µM (WNK1) | remaining activity at 1 µM (HIPK1) | remaining activity at 1 µM (IKK) | remaining activity at 1 µM (JNK2) | remaining activity at 1 µM (TESK1) | remaining activity at 1 µM (ROCK 2) | remaining activity at 1 µM (CK1γ2) | remaining activity at 1 µM (MELK) | remaining activity at 1 µM (LKB1)
1 | N=C(N)NCCC[C@@H](NC(=O)CCCCCNC(=O)Cn1cnc2c(I)c(I)c(I)c(I)c21)C(=O)N[C@H](CCCNC(=N)N)C(=O)N[C@H](CCCNC(=N)N)C(=O)N[C@H](CCCNC(=N)N)C(=O)N[C@H](CCCNC(=N)N)C(=O)N[C@H](CCCNC(=N)N)C(=O)N[C@H](CCCCN)C(N)=O [ARC-3125, TIBI-CH2-C(=O)-Ahx-(D-Arg)6-D-Lys-NH2] | 7 ± 1% | 71 ± 4% | 105 ± 33% | 61 ± 1% | 77 ± 4% | 123 ± 7% | 102 ± 3% | 5 ± 1% | 45 ± 5% | 34 ± 4% | 49 ± 28%
2 | N=C(N)NCCC[C@@H](NC(=O)CNC(=O)[C@@H](CCCNC(=N)N)NC(=O)[C@@H](CCCNC(=N)N)NC(=O)CCCCCCCNCc1nc2c(sc3cc(Br)cnc32)c(=O)[nH]1)C(=O)N[C@H](CCCCN)C(N)=O [Compound 1, BPTP-Aoc-(D-Arg)2-Gly-D-Arg-D-Lys-NH2] | 17% | 143 ± 10% | 96 ± 4% | 111 ± 9% | 116 ± 9% | 107 ± 1% | 111 ± 11% | 114 ± 17% | 117 ± 3% | 86 ± 5% | 107 ± 1%
3 | N=C(N)NCCC[C@@H](NC(=O)CCCCCNCc1nc2c(sc3cc(Br)cnc32)c(=O)[nH]1)C(=O)N[C@H](CCCNC(=N)N)C(=O)N[C@H](CCCNC(=N)N)C(=O)N[C@H](CCCNC(=N)N)C(=O)N[C@H](CCCNC(=N)N)C(=O)N[C@H](CCCNC(=N)N)C(=O)N[C@H](CCCCN)C(N)=O [ARC-3126, BPTP-Ahx-(D-Arg)6-D-Lys-NH2] (X3-[dR][dR][dR][dR][dR][dR][dK]-NH2) | 13% | 125 ± 22% | 107 ± 34% | 95 ± 15% | 118 ± 12% | 38 ± 13% | 99 ± 14% | 65 ± 17% | 66 ± 10% | 79 ± 1% | 114 ± 11%
4 | N=C(N)NCCC[C@@H](NC(=O)CNC(=O)[C@@H](CCCNC(=N)N)NC(=O)[C@@H](CCCNC(=N)N)NC(=O)Cn1cc(CNCc2nc3c(sc4ccc(Br)cc43)c(=O)[nH]2)nn1)C(=O)N[C@H](CCCCN)C(N)=O [Compound 3, BBTP-Amt-(D-Arg)2-Gly-D-Arg-D-Lys-NH2] | 6% | 95 ± 32% | 104 ± 6% | 60 ± 3% | 122 ± 12% | 129 ± 21% | 105 ± 1% | 62 ± 5% | 88 ± 1% | 73 ± 11% | 115 ± 13%
5 | N=C(N)NCCC[C@@H](NC(=O)CNC(=O)[C@@H](CCCNC(=N)N)NC(=O)[C@@H](CCCNC(=N)N)NC(=O)CCCCCCCNCc1nc2c(sc3ccc(Br)cc32)c(=O)[nH]1)C(=O)N[C@H](CCCCN)C(N)=O [Compound 2, BBTP-Aoc-(D-Arg)2-Gly-D-Arg-D-Lys-NH2] | 4 ± 1% | 121 ± 8% | 93 ± 1% | 60 ± 12% | 104 ± 15% | 91 ± 7% | 106 ± 13% | 61 ± 5% | 116 ± 10% | 75 ± 9% | 118 ± 4%
